The values below come from paper PMC2990405.

The assay has as its target Canonical-type transient receptor potential cation channel type 3 (TRPC3) (rabbit (endogenous in skeletal muscle)). The assay can be described thus: co-IP.

As to “GST-JP2 fragment F1-3 (a.a. 143-215) (from UniProt Q9ET78 143-215) (domain or fragment)”, the ratio of GST-band/TRPC3-band intensities normalised to F1-1 (set as 1) was 0.25.
